Two variants from publication PMC13233901 can be followed below.

The labels stand for the following.
B1: wild type (WT) estrogen receptor [human (endogenous in and MCF7)] / progesterone receptor [human (endogenous in and MCF7)] (parent)
chain 1: MTMTLHTKASGMALLHQIQGNELEPLNRPQLKIPLERPLGEVYLDSSKPAVYNYPEGAAYEFNAAAAANAQVYGQTGLPYGPGSEAAAFGSNGLGGFPPLNSVSPSPLMLLHPPPQLSPFLQPHGQQVPYYLENEPSGYTVREAGPPAFYRPNSDNRRQGGRERLASTNDKGSMAMESAKETRYCAVCNDYASGYHYGVWSCEGCKAFFKRSIQGHNDYMCPATNQCTIDKNRRKSCQACRLRKCYEVGMMKGGIRKDRRGGRMLKHKRQRDDGEGRGEVGSAGDMRAANLWPSPLMIKRSKKNSLALSLTADQMVSALLDAEPPILYSEYDPTRPFSEASMMGLLTNLADRELVHMINWAKRVPGFVDLTLHDQVHLLECAWLEILMIGLVWRSMEHPGKLLFAPNLLLDRNQGKCVEGMVEIFDMLLATSSRFRMMNLQGEEFVCLKSIILLNSGVYTFLSSTLKSLEEKDHIHRVLDKITDTLIHLMAKAGLTLQQQHQRLAQLLLILSHIRHMSNKGMEHLYSMKCKNVVPLYDLLLEMLDAHRLHAPTSRGGASVEETDQSHLATAGSTSSHSLQKYYITGEAEGFPATV
chain 2: MTELKAKGPRAPHVAGGPPSPEVGSPLLCRPAAGPFPGSQTSDTLPEVSAIPISLDGLLFPRPCQGQDPSDEKTQDQQSLSDVEGAYSRAEATRGAGGSSSSPPEKDSGLLDSVLDTLLAPSGPGQSQPSPPACEVTSSWCLFGPELPEDPPAAPATQRVLSPLMSRSGCKVGDSSGTAAAHKVLPRGLSPARQLLLPASESPHWSGAPVKPSPQAAAVEVEEEDGSESEESAGPLLKGKPRALGGAAAGGGAAAVPPGAAAGGVALVPKEDSRFSAPRVALVEQDAPMAPGRSPLATTVMDFIHVPILPLNHALLAARTRQLLEDESYDGGAGAASAFAPPRSSPCASSTPVAVGDFPDCAYPPDAEPKDDAYPLYSDFQPPALKIKEEEEGAEASARSPRSYLVAGANPAAFPDFPLGPPPPLPPRATPSRPGEAAVTAAPASASVSSASSSGSTLECILYKAEGAPPQQGPFAPPPCKAPGASGCLLPRDGLPSTSASAAAAGAAPALYPALGLNGLPQLGYQAAVLKEGLPQVYPPYLNYLRPDSEASQSPQYSFESLPQKICLICGDEASGCHYGVLTCGSCKVFFKRAMEGQHNYLCAGRNDCIVDKIRRKNCPACRLRKCCQAGMVLGGRKFKKFNKVRVVRALDAVALPQPVGVPNESQALSQRFTFSPGQDIQLIPPLINLLMSIEPDVIYAGHDNTKPDTSSSLLTSLNQLGERQLLSVVKWSKSLPGFRNLHIDDQITLIQYSWMSLMVFGLGWRSYKHVSGQMLYFAPDLILNEQRMKESSFYSLCLTMWQIPQEFVKLQVSQEEFLCMKVLLLLNTIPLEGLRSQTQFEEMRSSYIRELIKAIGLRQKGVVSSSQRFYQLTKLLDNLHDLVKQLHLYCLNTFIQSRALSVEFPEMMSEVIAAQLPKILAGMVKPLLFHKK

In this experiment the parent is B1. Kind of experiment: proximity ligation assay (PLA). The conditions noted are these: with progesterone receptor [human (endogenous in T47D and MCF7)], read off a plot.
Where [1] appears, read: MCF7 cells, basal (no added hormone), parent: 1.2.
Setting [2] is: T47D cells, basal (no added hormone), parent: 6.4.

On to chain 1 MTMTLHTKASGMALLHQIQGNELEPLNRPQLKIPLERPLGEVYLDSSKPAVYNYPEGAAYEFNAAAAANAQVYGQTGLPYGPGSEAAAFGSNGLGGFPPLNSVSPSPLMLLHPPPQLSPFLQPHGQQVPYYLENEPSGYTVREAGPPAFYRPNSDNRRQGGRERLASTNDKGSMAMESAKETRYCAVCNDYASGYHYGVWSCEGCKAFFKRSIQGHNDYMCPATNQCTIDKNRRKSCQACRLRKCYEVGMMKGGIRKDRRGGRMLKHKRQRDDGEGRGEVGSAGDMRAANLWPSPLMIKRSKKNSLALSLTADQMVSALLDAEPPILYSEYDPTRPFSEASMMGLLTNLADRELVHMINWAKRVPGFVDLTLHDQVHLLECAWLEILMIGLVWRSMEHPGKLLFAPNLLLDRNQGKCVEGMVEIFDMLLATSSRFRMMNLQGEEFVCLKSIILLNSGVYTFLSSTLKSLEEKDHIHRVLDKITDTLIHLMAKAGLTLQQQHQRLAQLLLILSHIRHMSNKGMEHLYSMKCKNVVPLSDLLLEMLDAHRLHAPTSRGGASVEETDQSHLATAGSTSSHSLQKYYITGEAEGFPATV [chain 1 Y537S], for which the response under setting [1] stood at 0.68 Dots/Cell; the response (T47D cells, R5020 (10 nM) for 30 min, parent: 11) came out at 13 Dots/Cell; the response under setting [2] was 1.6 Dots/Cell.

Take chain 1 MTMTLHTKASGMALLHQIQGNELEPLNRPQLKIPLERPLGEVYLDSSKPAVYNYPEGAAYEFNAAAAANAQVYGQTGLPYGPGSEAAAFGSNGLGGFPPLNSVSPSPLMLLHPPPQLSPFLQPHGQQVPYYLENEPSGYTVREAGPPAFYRPNSDNRRQGGRERLASTNDKGSMAMESAKETRYCAVCNDYASGYHYGVWSCEGCKAFFKRSIQGHNDYMCPATNQCTIDKNRRKSCQACRLRKCYEVGMMKGGIRKDRRGGRMLKHKRQRDDGEGRGEVGSAGDMRAANLWPSPLMIKRSKKNSLALSLTADQMVSALLDAEPPILYSEYDPTRPFSEASMMGLLTNLADRELVHMINWAKRVPGFVDLTLHDQVHLLECAWLEILMIGLVWRSMEHPGKLLFAPNLLLDRNQGKCVEGMVEIFDMLLATSSRFRMMNLQGEEFVCLKSIILLNSGVYTFLSSTLKSLEEKDHIHRVLDKITDTLIHLMAKAGLTLQQQHQRLAQLLLILSHIRHMSNKGMEHLYSMKCKNVVPLYGLLLEMLDAHRLHAPTSRGGASVEETDQSHLATAGSTSSHSLQKYYITGEAEGFPATV [chain 1 D538G]: the response runs as follows: under setting [1], 0.58 Dots/Cell; under setting [2], 1 Dots/Cell.
